Here are results for one substance from patent US20140011732A1.

In this assay the target is human serum albumin (HSA) (human) (UniProt P02768). The experiment in a line: competition SPA on biotinylated HSA, 125I acylated GLP-1 tracer.

The EC50 is the concentration that produces a half-maximal response.

Chain of N-epsilon37-[2-(2-[2-(2-[2-(2-((R)-3-[1-(17-Carboxyheptadecanoyl)piperidin-4-ylcarbonylamino]3-carboxypropionylamino)ethoxy)ethoxy]acetylamino)ethoxy]ethoxy)acetyl][DesaminoHis7, Glu22 Arg26, Arg 34, (peptide): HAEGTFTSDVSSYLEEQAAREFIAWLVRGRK

In turn, “N-epsilon37-[2-(2-[2-(2-[2-(2-((R)-3-[1-(17-Carboxyheptadecanoyl)piperidin-4-ylcarbonylamino]3-carboxypropionylamino)ethoxy)ethoxy]acetylamino)ethoxy]ethoxy)acetyl][DesaminoHis7, Glu22 Arg26, Arg 34, Phe(m-CF3)28]GLP-1-(7-37)amide (peptide)” had an EC50 of 800 nM.
